Results published in publication PMC12013513, “Anillin mediates unilateral furrowing during cytokinesis by limiting RhoA binding to its effectors” (The Journal of Cell Biology, 2025).

B1: 10xHis-RHO-1^WT (wild type RHO-1, 1-188 AA) (domain or fragment)
chain: not shown
notes: RHO-1 (RhoA in humans), C. elegans, residues 1-188 (without the CAAX motif), amplified from cDNA; Cloned into pET-19b; also called His-tagged RHO-1; RhoA; source: E. coli BL21 (DE3), purified (Ni-NTA)
B2: 10xHis-RHO-1^Q63L (constitutively active RHO-1, 1-188 AA) (domain or fragment)
chain: not shown
notes: RHO-1 (RhoA in humans), C. elegans, residues 1-188, with Q63L made by site-directed mutagenesis of the wild type construct; Cloned into pET-19b; source: E. coli BL21 (DE3), purified (Ni-NTA)

Assays:
[1] = target: T1, GST-ANI-1^C-term (681-1159 AA) (C. elegans, UniProt Q9XTT4 681-1159); assay: pull-down; ~4 μg GST-ANI-1 fragment on Glutathione Sepharose beads mixed with ~4 μg purified 10xHis-RHO-1 in 300 μl binding buffer (20 mM Tris pH 7.4, 150 mM NaCl, 5 mM MgCl2, 0.1% Triton X-100, 1 mM DTT) with 1 mM GTP, 4°C, 1.5 h; bound RHO-1 detected by anti-His immunoblot; settings: both partners purified
T1 construct: ANI-1 (anillin homolog), C. elegans, residues 681-1159 comprising the RBD, C2 region and PH domain; Cloned into pGEX-4T; used on the beads directly in the pull-down; also called GST-tagged C-terminus of ANI-1; anillin C-terminus; source: E. coli BL21 (DE3), purified on Glutathione Sepharose 4B beads
T1 sequence (looked up): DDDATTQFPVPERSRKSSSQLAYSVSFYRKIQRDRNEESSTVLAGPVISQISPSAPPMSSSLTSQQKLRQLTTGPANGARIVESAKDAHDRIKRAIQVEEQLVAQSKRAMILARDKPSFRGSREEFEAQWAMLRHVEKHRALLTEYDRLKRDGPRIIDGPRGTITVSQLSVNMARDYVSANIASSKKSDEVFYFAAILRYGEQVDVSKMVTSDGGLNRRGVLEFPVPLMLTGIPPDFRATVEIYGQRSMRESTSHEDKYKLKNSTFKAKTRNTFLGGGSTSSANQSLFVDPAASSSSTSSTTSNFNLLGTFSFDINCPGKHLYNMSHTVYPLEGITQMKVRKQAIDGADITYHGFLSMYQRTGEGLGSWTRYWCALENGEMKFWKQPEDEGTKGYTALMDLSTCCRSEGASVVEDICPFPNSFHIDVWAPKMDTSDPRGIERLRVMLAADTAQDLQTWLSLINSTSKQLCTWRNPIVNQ

[2] = target: T2, GST-ANI-1^Link+C-term (460-1159 AA) (C. elegans, UniProt Q9XTT4 460-1159); assay: as above; settings: both partners purified
T2 construct: ANI-1 (anillin homolog), C. elegans, residues 460-1159: linker region, RBD, C2 region and PH domain; Cloned into pGEX-4T; used on the beads directly in the pull-down; also called protein consisting of the linker region and C-terminus; source: E. coli BL21 (DE3), purified on Glutathione Sepharose 4B beads
T2 sequence (looked up): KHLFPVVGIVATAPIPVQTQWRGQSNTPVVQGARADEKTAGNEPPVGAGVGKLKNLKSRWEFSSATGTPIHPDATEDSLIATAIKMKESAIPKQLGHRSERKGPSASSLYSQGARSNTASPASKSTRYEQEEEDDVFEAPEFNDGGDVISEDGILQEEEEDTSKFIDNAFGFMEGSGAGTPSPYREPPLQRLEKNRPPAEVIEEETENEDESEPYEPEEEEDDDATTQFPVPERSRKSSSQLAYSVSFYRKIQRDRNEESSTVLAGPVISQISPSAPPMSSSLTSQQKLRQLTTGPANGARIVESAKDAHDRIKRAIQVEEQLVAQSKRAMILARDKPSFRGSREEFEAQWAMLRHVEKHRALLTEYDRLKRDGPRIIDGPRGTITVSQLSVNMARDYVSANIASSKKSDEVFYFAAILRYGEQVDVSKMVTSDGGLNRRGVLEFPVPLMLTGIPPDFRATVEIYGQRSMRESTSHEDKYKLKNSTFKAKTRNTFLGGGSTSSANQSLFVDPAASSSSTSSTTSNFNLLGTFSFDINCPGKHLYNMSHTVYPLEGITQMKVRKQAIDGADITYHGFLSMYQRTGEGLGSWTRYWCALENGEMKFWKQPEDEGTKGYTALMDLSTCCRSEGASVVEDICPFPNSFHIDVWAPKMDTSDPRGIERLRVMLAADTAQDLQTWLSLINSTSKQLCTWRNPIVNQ

Binder	binding result [1]	binding result [2]
B1	binds	–
B2	binds	binds
